The values below come from US20170020994.

Data set [1] has as its system RA-TALE_ICP4 (ICP4-TALE-VP16) (synthetic construct). Put plainly: cell_activity. The settings on record: Fluc reporter with ICP4 promoter, 293T.
Data set [2] relates to RA-TALE_ICP0 (ICP0-TALE-VP16) (synthetic construct). Nature of the data set: cell_activity. The following applies: Fluc reporter with ICP0 promoter, 293T.

As to “GGCAGATGGCGCGGATG (double strand) [ICP4 promoter TALE site]”, the activity (fold activation) in data set [1] turned out to be 60.
“GGGACGCGCGGCCAT (double strand) [ICP0 promoter TALE site]”: the activity (fold activation) in data set [2] was 20.
